Reference: paper PMC3967714 (Cell reports, 2013)
Where no end group is shown, it is not given here.

T1: Dido3 PHD finger (Homo sapiens, UniProt Q9BTC0)
T1 sequence (Q9BTC0 266-325): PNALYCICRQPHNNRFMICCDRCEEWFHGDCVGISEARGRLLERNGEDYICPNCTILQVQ

T2: Dido3 PHD E289A (UniProt Q9BTC0-4 266-325, E289A)
T2 sequence: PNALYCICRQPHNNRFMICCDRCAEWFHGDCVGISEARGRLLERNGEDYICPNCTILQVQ

T3: Dido3 PHD H277A (UniProt Q9BTC0-4 266-325, H277A)
T3 sequence: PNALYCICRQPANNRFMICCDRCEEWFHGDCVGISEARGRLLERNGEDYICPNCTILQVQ

T4: Dido3 PHD D286A (UniProt Q9BTC0-4 266-325, D286A)
T4 sequence: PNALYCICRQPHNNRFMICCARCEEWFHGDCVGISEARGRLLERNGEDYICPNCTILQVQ


How the values were obtained:
Dido3 PHD finger [1] = target: T1, Dido3 PHD finger; assay type: binding; conditions: wild-type Dido3 PHD, tryptophan fluorescence and NMR, peptides aa 1–12 of H3
Dido3 PHD finger [2] = target: T1, Dido3 PHD finger; assay: 1H,15N HSQC NMR titration of 15N-labeled Dido3 PHD with histone peptides; assay type: binding; conditions: for chemical-shift changes in 1H,15N HSQC spectra: peptides aa 1–12 of H3 (H3K4me0: aa 1–19)
Dido3 PHD E289A = target: T2, Dido3 PHD E289A; assay: other fluorescence titration + NMR titration
Dido3 PHD H277A = target: T3, Dido3 PHD H277A; assay: other fluorescence titration + NMR titration
Dido3 PHD D286A = target: T4, Dido3 PHD D286A; assay: other fluorescence titration + NMR titration

weaker binding relative to H3K4me3 (Dido3 PHD finger [1]) [fold]	exchange regime on the NMR timescale (Dido3 PHD finger [2]; peptide aa 1–12 of H3)	fold decrease of binding against the wild type (Dido3 PHD E289A) [fold]	binding result (Dido3 PHD H277A)	fold decrease of binding against the wild type (Dido3 PHD D286A) [fold]	Molecule	chemical-shift changes in 1H,15N HSQC spectra (Dido3 PHD finger [2])
85	intermediate exchange regime	–	–	–	H3K4me1: H3K4me1 peptide (aa 1–12 of H3)	very similar pattern of chemical-shift changes
6	–	–	–	–	H3K4me2: H3K4me2 peptide (aa 1–12 of H3)	very similar pattern of chemical-shift changes
–	–	~4	binds	~200	ARTK(Me3)QTARKSTG (peptide, UniProt P68431 2-13, looked up) [H3K4me3 peptide (aa 1-12 of H3)]	–
